Experimental data as given in the DeepSol protein solubility set.

Test: soluble on expression in E. coli; label from the status in PepcDB or PDB records

Sequence | soluble on expression in E. coli
MNNGEGEVMDLRDIDLNLLVVFNQLLLDRSVSTAGEKLGLTQPAVSNSLKRLRTALNDDLFLRTSKGMEPTPYALHLAEPVIYALNTLQTALTTRDSFDPFASTRTFNLAMTDIGEMYFMPPLMEALAQRAPHIQISTLRPNAGNLSEDMESGAVDLALGLLPELQTGFFQRRLFRHRYVCMFRKDHPSAKSPMSLKQFSELEHVGVVALNTGHGEVDGLLERAGIKRRMRLVVPHFIAIGPILHSTDLIATVPERFAVRCEVPFGLTTSPHPAKLPDIAINLFWHAKYNRDPGNMWLRQLFVELFSEAHHHHHH | soluble
MSLATEIVENMFCVNAPAGSGKTTKIKSMIVNHKIKHPIDNILCITYTKRAAEELNKDFNEEGIHISTIHSFLHKFLKIYFCKTEMKDLYFEMFEDLIKESIENKEEKEHIVTRNQKYIEKHGCLSVESIKANIDAIYYNESSNNHLYTGGLAHDSLLLFAEKVFDKFPKIKMRLTQKYQSIFIDEYQDSAASVLRMFYKACLNTKSNLYFLGDKMQQIYKNYDGSFEEELKTLNTDIKLDINHRSIPDIVSVLNNIYNDKGFKQNPSKKNLDIKPDHPPRIIMCDNIQERLKRECSIYPDALLLFLLNQQKFASIGARELYKQFSHLERYSHAKQLSATDVLSDNTSENTDPLLKLLFIVGEVVDYYKKSNVGSIIQIFKANRKLFDMGIGTITSHRDRIDLTKLLKQLYEDYHKEISISEFLTLLRGCNEGHHHHHH | not soluble
MKNPCNVIAIIGKPRDQQAIQTHKELYEWLTSEGYKVFIDDRLAAILDEIPQNHFASLVELGKNADLAIVVGGDGNMLGAARILSRFDVPVIGVNRGNLGFLTDLNPDDFQAALKAVLAGEYIEEERFLLEAEVHRHGQIKSHNAALNEAVLHPGQIAHMIEFEVYIDESFAFSLRADGLIVSTPTGSTAYSLSGGGPILSPSLNAISLVPMFPHTLSSRPLVVDGKRRIKLIVSPENRGTQEVSCDGQVSLPVSPGDEIHIYQSPNVLKLIHPKDYSYYHVLRNKLGWSSKLFMAGDPLEHHHHHH | soluble
SVCLFALQIPHDEAQLLALLQQVVQSHPSFKIEVRRRDKLFACNSSAFKKYLALQLWEKYQLKGKLVDPAITVHVEVTKEHFLIISES | not soluble
MADGMGNLIGWEKTGLVVGKQWITAKDDKVSDVCNANGEMGVIGLYEPFSHGALTIPGHPNCRCEVVSVSGGELGEFAEKKELRKAAMQYARDNFIGKSYVNKNSGHELKVTWQGVKHAASKANQAELSIMTKLDDLLRYAKYEGSYSDRKGHPNIIAAHKYRAVAKVGNESLNIGVIVREFPDDHKHYDHFILKDE | not soluble
AARQMEALNRGLVAVKTDGGIFVSWRFLGTENASVLFNVYRDGQKLNAAPVKTTNYVDKNGSAGSTYTVRAVVNGTEQPASEKASVWAQPYHSVPLDKPAGGTTPKGESYTYSANDASVGDVDGDGQYELILKWDPSNSKDNSQDGYTGDVLIDAYKLDGTKLWRINLGKNIRAGAHYTQFMVYDLDGDGKAEVAMKTADGTKDGTGKVIGNANADYRNEQGRVLSGPEYLTVFQGSTGKELVTANFEPARGNVSDWGDSYGNRVDRFLAGIAYLDGQRPSLIMTRGYYAKTMLVAYNFRDGKLSKLWTLDSSKSGNEAFAGQGNHNLSIADVDGDGKDEIIFGSMAVDHDGKGMYSTGLGHGDALHTGDLDPGRPGLEVFQVHEDKNAKYGLSFRDAATGKILWGVYAGKDVGRGMAADIDPRYPGQEVWANGSLYSAKGVKIGSGVPSSTNFGIWWDGDLLREQLDSNRIDKWDYQNGVSKNMLTASGAAANNGTKATPTLQADLLGDWREEVVWRTEDSSALRIYTTTIPTEHRLYTLMHDPVYRLGIAWQNIAYNQPPHTSFFLGDGMAEQPKPNMYTPLEHHHHHH | soluble
MATPETRRRPNILVTGSPGTGKSTLGQQVAEKLGFVFIEVSKEVRENNLQGDFDEQYNCHVLDEDKLLDHISDRLDSDEGGIVVDYHGCDLFPERWFDVVVVLRCPTEKLYDRLQSRGYSEFKIKENVECEIFGTLLEEARESYSEDIVHELQSETTEQMEENLERICELAGEFKNEHTMEQ | not soluble
MERSWGMGHFPHMQKKTLDAFVRGLQIVMEAEGIKMKPLSVAAGMGESGVRDLIRNESSPKVANAYALARELGRTVDEIIQIGMTGDLNARPAHAPIAVAGCVGAGARVDLLDAYEKGDGMYHVARPPQLKPHGIVAVEVKGESMMPLYRPGSVLFYTRAAAEGVPVEALNTPCVCEDADGRAWLKVVKVGSQEGTFSLLSLNPDADNMHGVRLKWAAPVLLTLSPDYVERVYV | not soluble
MIGGRLKSLRGKRTQEEIASHIGVSRARYSHYENGRSEPDYDTLQKLADYFQVTTDYLLTGKDKKSDDDMFSDPDLQLAYRDMQDFSPESKQQAIEFINYLKEKEKNRKPKNK | not soluble
GFQSNAMKQETPITLHVKSVIEDDGNQEVIEFRTTGFYYVKQNKVYLSYYEEHDLGKVKTIVKVSEGEVLVMRSGAVKMNQRFVTGASTIAKYKMSFGELELKTSTKSIQSDLDEEKGRISIAYDMHVGDEQEHLHNMTITYEGGTHA | soluble
MGSDKIHHHHHHGQYIKKETVNSQVYAVIYAEGLAGSAQWVSGFKMMKNDATIRHQVSRGNGGNPIVNDRIPMRFIIAPTDVANVTWMQAEGAGDGNGNLNADFRSTAATGCRSYKIAGDPNRKWRVPTQRELQLMWLFREPVGVIYPAAQMENVSSKIYWAATEEDAANAWYFDFKQGVPQCSWQLKTTSSNVRCVSDY | not soluble
SMEEKLENEPDFQYIPEKAPLDSVHQDDHSLRESMIQLAEGLITGTVLTQFDQLYRKKPGMTMSCAKLPQNISKNRYRDISPYDATRVILKGNEDYINANYINMEIPSSSIINQYIACQGPLPHTCTDFWQMTWEQGSSMVVMLTTQVERGRVKCHQYWPEPTGSSSYGCYQVTCHSEEGNTAYIFRKMTLFNQEKNESRPLTQIQYIAWPDHGVPDDSSDFLDFVCHVRNKRAGKEEPVVVHCSAGIGRTGVLITMETAMCLIECNQPVYPLDIVRTMRDQRAMMIQTPSQYRFVCEAILKVYEEGFVKPLTTSTNKLT | soluble
MSTKRKIVVSSDSDDDMPFTQEKQKKAATPAKKRTKPVVLTDDDEEEENAPQKKTAPKRSRKQEKEESDITSDEDELVRGTDEKKKRKGGKKELPVGQKTLDYMFKPSSSSSKRDDPKKKVEKTLVNPADFFKNSPAPSASKLPKVAPKTVEKPKTPAKKPVEISPSTKENTKTKKVSDDEFVDSDDSFDTFTPITVKKKTPEKRKETPKKKELPSVKKEFPKKQSIPVKKEKETPQKKALSVKKDPPKVTSESSSSSQVSTSSVVFQPKPSGPPPALSWVDKYKPKRMGELVGQNGDKSPINKLLEWIKDWAKHNLGEGAKIKKPKPAPWMSSQDGTSFKAALLSGSPGVGKTTCAYMACQQLGLQLVEMNASDVRSKKHLEAKIGELSGSHQIEQFFGAKKCAPQDNQKVHHILIMDEVDGMSGNEDRAGISELIQIIKESKIPIICICNDRQHPKIRTLANYCYDLRFPKPRVETIRSRMMTICSQEKMKIGKEELDEIIELSGHDVRQTIYNLQMRSKGVGAKINQKDMAVDAFSAARRLLDSRTTLMEKQEMFFTDYGIMPLFVQDNYLNMKNEKHSPIQAIRGIRKAADFISLGDLIDRQIRGGGSWKLLNEQSMISAALPAIATGGHLKAMIQFPSWLGKNSTAGKRKRLLQQLVQHTHLKVSAGTHSFATDYAPMLRQKITKPLLEHEADGIPDVISTMTEYDLIKDDTEALTEIVAWPGKIDPASKILSKVKASLTRTLNKTGRMLPYSMDSVSKGKKRGVNSIGIEMDEEGNLVEKFEDEDGESDNEDNEEKTTDVVIKVRTGGGAGASKSARGGRGGGRARGGRGSKK | not soluble
PDLYNHAIVIGYGRVGSMLAQLLQSRHVPLLVIDDNSEHVLKAHAAGIPAIRGSAAADLVLAEAHPERAKIAVLAIPQPLEAGEILAKLRALNPELTLVARAQNDAEVKHLLGHGADATVVAEHEMAHSLAEMVLSSTNH | not soluble
MTSPNNDILAAQLSQLGTLRAALAQAVVGQDAVVEQLLIGLLAGGHCLLEGAPGLGKTLLVRSLGQALDLQFRRVQFTPDLMPSDILGTELLEEDHGTGHRHFRFQQGPIFTNLLLADELNRTPPKTQAALLEAMSERTVSYAGTTYALPAPFFVLATQNPIEQAGTYPLPEAQLDRFLLHVRVDYPSEQEERDILTQTTGSASAQVPKVMDAASVQALQQHVRQVHVGAELLTWINRLVRASRPGPQASDEVRQWIKWGAGPRAGQSLVLASKARALLHGRFAATREDVVALAAPVMRHRLLLSFAAEAEQRTADDVVAALLRAVPFPALEHHHHHH | soluble
MGSDKIHHHHHHMKIIHIVESSATGTLSMVCLIANRLAREGHDVHVIYSVRPDTPPALAAMFDTRVSLRHVQMKGAGLLRIAGRLRATLNEIGPDVVHLHSSFAGFLGRLSTLFALPKAAFFYSPHCISFMRRDISGVKRMAFIGLEWIACVRKCLYVACSESEGHAIRAWLRQPVVVVENAVSDTRSPQRSGDAERLADGPPCVVTVGGIRAQKNPELFARIAHGMRARGTRFVWIGDGDAAEKARLAEAGVEVTGWLPRDEVVRRLERADVYLSTSSWEGMPVSVIEAMLAGRPVIVSDCAGNVDVVRHLQTGLIYTTASDAIAWLERLAGDDALRRELARRASREARQRFGEERLFGELAPLYAASVAR | not soluble
MGSDKIHHHHHHMGLMDFRPYFRVTVDGKDISGVLAPRLVSLRVTDGAGVQSDTVEIRLSDTNLFQRISEPRAGAEIEVWLGFPLSLSYMGLFVADTIETGGPPDTVTITGTASVNGETTSGKTALTDQKKRSWPEGTTIGAMVEKIASEHGLIAMVSESLRAEALPHIDQIDESDINLLSRIARDFDAIAKPGNGRLIMTRRGESLTASGQPLPVVRVDKSSVTEWRYRNSLRERVGRVIATTQDLEAGQPVEVEAGQGEPALRLRRRFPDKVTARKTAESELKRLGRAGRSLSITMPGNSDIVAEARLSASGFRSYIDGEWLVSRATHILDSGGYRTAITAEPVE | not soluble
MRKCRCLKLRNVKLINIRRIAVMMRSSKMASERSTDVQAFIGELDGGVFETKIGAVLSEVASGVMNTKTKGKVSLNLEIEPFDENRLKIKHKLSYVRPTNRGKISEEDTTETPMYVNRGGRLTILQEDQGQLLTLAGEPDGKLRAAGHMAGDPLEHHHHHH | soluble
MFIKIFLITYRYKLTVISIIGGGTIGSSIAIPLKRSGFEVIVTRRNTAVLKHLESYGISVMSDNKTASKEADVVFLTLKPVDIIPEVRKIEENIRGKLLISMAAAIPLKLIKDAAPHSIVVRAMTNIAAKVGAGFTPFCVDDGDQEVAKRASSILSALGEVYLVEEKYMDALTALSGSGPAYILTIIEAMMYGGLKLGLPRDLALKASYQTVMGSAKLLAESGEHPSELKEKVITPGGTTIDGIYELEDARVRTAIMKAIEVSTMKANKISESIKKLEQLEHHHHHH | not soluble
MRKGNTDLLLFFNGWGMDRRVADWLVSAWPDSAGRDIAVLYDYRNLSIPAWLGEVMAEARAVDLVAWSLGVWAAVNSELEKIDRAVAINGTATPLDAERGIPPEIFAGTLKSWNDANRKRFERRMTGGVPPKIVDATRSDRTSADQQAELLSLGEAVARFPAESTASWKFSKALIGGRDLIFSAENQRRAWSEAGVRVAEIAAMPHFPFTHIAGWGELFT | not soluble
